Measurements as given in patent US20210032312A1 (Janssen / Centocor, published 2021).
Changes are numbered by the printed parent chain. Each block holds one binder with its values, some of them ahead of it.

What was measured:
In house human CD8A-Fc = target: T1, In house human CD8A-Fc (human, UniProt P01732 22-182, limits assumed); experiment: SPR (ProteOn), captured hCD8A-Fc
T1 construct: Captured on goat anti-human Fc on a ProteOn GLC chip; also called hCD8A-Fc; recombinant human CD8 alpha; not shown: linker with flag (and polyhistidine) tag and Fc of human IgG1
Method: Purified anti-CD8A FN3 domains were subjected to off-rate analysis using a Proteon surface plasmon resonance instrument in order to pick clones with the slowest off-rates for further characterization.
The immobilized GAH-Fc IgG densities averaged about 6000 Response Units (Ru) with less than 1% variation among different channels. In house human CD8A-Fc was captured in vertical orientation at 3 different ligand densities, 10, 5, 2.5 μg/ml for 5 minutes at 30 ul/minute flowrate. All FN3 domains were normalized to a 3 μM concentration, and tested for binding in horizontal orientation. All 6 analyte channels were used for FN3 domains to maximize the screening throughput. The dissociation phase was monitored for 15 minutes at a flow rate of 100 μl/min using PBST as running buffer. […] Data analyses were performed using Bio-Rad ProteOn Manager software (version 3.1.0.6). Raw data were double referenced by subtraction of the interspot (empty chip surface, no protein immobilized or captured) signals to correct the non-specific binding of the FN3 domain to the pre-coated GAH-Fc IgG surface, followed by a double correction using empty channel L6 where no hCD8A-Fc was captured. The processed binding data were locally fit to a 1:1 simple Langmuir binding model to extract the koff for each FN3 domain binding to captured hCD8A-Fc.

[1] = target: T2, cynomolgus monkey CD8A on primary cynomolgus monkey CD8+ T cells (cynomolgus monkey, UniProt P01732 23-235 (human entry)); experiment: flow cytometry, cyno CD8+ T cells, 2 uM FN3
T2 construct: also called Cyno CD8alpha
Method: (§1) Binding of the 190 ELISA hits to human and cynomologous monkey primary CD8 T cells was assessed by flow cytometry. The FN3 domain molecules were diluted to 2 μM and 0.2 μM in PBS and incubated with human or cynomologous monkey CD8+ T cells in 96-well format. After 1 hour at 4 C, the cells were washed once with PBS and then resuspended with an anti-FN3 domain antibody (PAB25) solution. Following this incubation, the cells were washed twice with PBS and a PE conjugated secondary antibody and a viability dye were added. Finally, cells were washed and resuspended in PBS for flow cytometric analysis using a BD Canto Instrument. Cells were gating on live cells and median fluorescence intensity of the bound Centyrins (PE channel) was calculated using Cytobank software.

[2] = target: T3, human CD8 alpha (CD8A) on primary human CD8+ T cells (human, UniProt P01732 22-235); experiment: flow cytometry, human CD8+ T cells, 2 uM FN3
T3 construct: whole, on cells; also called hCD8A
Method: as §1

[3] = target: T2, cynomolgus monkey CD8A on primary …; experiment: flow cytometry, cyno CD8+ T cells, 0.2 uM FN3
Method: as §1

[4] = target: T3, human CD8 alpha (CD8A) on primary human …; experiment: flow cytometry, human CD8+ T cells, 0.2 uM FN3
Method: as §1

T1 sequence (P01732 22-182 limits assumed): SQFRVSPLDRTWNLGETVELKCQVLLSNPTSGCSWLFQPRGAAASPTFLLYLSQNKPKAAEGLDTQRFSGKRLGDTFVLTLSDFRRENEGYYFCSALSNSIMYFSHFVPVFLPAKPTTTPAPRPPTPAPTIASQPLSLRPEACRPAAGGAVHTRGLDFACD
T3 sequence (P01732 22-235): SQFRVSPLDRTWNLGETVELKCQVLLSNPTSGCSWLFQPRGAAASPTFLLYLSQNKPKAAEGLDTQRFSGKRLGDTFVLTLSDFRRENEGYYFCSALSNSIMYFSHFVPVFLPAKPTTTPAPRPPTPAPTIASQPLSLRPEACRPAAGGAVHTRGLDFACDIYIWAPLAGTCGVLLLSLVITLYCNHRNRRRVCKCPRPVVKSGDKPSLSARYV
T2 sequence (P01732 other isoform, or with tags, fused parts or gaps limits assumed): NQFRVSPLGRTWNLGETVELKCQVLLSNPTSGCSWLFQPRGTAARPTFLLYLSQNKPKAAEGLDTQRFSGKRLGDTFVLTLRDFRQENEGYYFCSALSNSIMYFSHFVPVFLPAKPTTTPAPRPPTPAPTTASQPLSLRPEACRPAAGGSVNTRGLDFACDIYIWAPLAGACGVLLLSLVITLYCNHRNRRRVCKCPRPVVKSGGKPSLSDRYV

koff (In house human CD8A-Fc): 0.000311 s⁻¹
Cyno T-cell Binding 2 uM (MFI) [1]: 74100 MFI
Human T-cell Binding 2 uM (MFI) [2]: 28600 MFI
Cyno T-cell Binding 0.2 uM (MFI) [3]: 4070 MFI
Human T-cell Binding 0.2 uM (MFI) [4]: 2760 MFI
B1: P282CR9P1358_D10 (designed binder)
chain: LPAPKNLVVSRVTEDSARLSWTAPDAAFDSFLISYPEYPPPGEAIVLTVPGSERSYDLTGLKPGTEYFVIIFGVKGGDTSWPLSAIFTT
notes: FN3 domain

koff (In house human CD8A-Fc): 0.000269 s⁻¹
Cyno T-cell Binding 2 uM (MFI) [1]: 37700 MFI
Human T-cell Binding 2 uM (MFI) [2]: 14500 MFI
Cyno T-cell Binding 0.2 uM (MFI) [3]: 6840 MFI
Human T-cell Binding 0.2 uM (MFI) [4]: 3450 MFI
B4: P283BR9P1363_B6 (designed binder)
chain: LPAPKNLVVSRVTEDSARLSWQRHSDAHPLFDSFLIQYQESEKVGEAIVLTVPGSERSYDLTGLKPGTEYTVSIYGVDVKWEGNRPVASNPLSAIFTT
notes: FN3 domain

koff (In house human CD8A-Fc): 0.000329 s⁻¹
Cyno T-cell Binding 2 uM (MFI) [1]: 17700 MFI
Human T-cell Binding 2 uM (MFI) [2]: 10800 MFI
Cyno T-cell Binding 0.2 uM (MFI) [3]: 2470 MFI
Human T-cell Binding 0.2 uM (MFI) [4]: 2500 MFI
B6: P283BR9P1363_E4 (designed binder)
chain: B4 chain with Q22I, R23K, H24S, S25E, D26T, A27S, H28Q, L30A
notes: FN3 domain

koff (In house human CD8A-Fc): 0.000208 s⁻¹
Cyno T-cell Binding 2 uM (MFI) [1]: 14800 MFI
Human T-cell Binding 2 uM (MFI) [2]: 8360 MFI
Cyno T-cell Binding 0.2 uM (MFI) [3]: 2820 MFI
Human T-cell Binding 0.2 uM (MFI) [4]: 2400 MFI
B10: P283BR9P1363_B2 (designed binder)
chain: LPAPKNLVVSRVTEDSARLSWASTVDPHPRFDSFLIQYQESEKVGEAIVLTVPGSERSYDLTGLKPGTEYTVSIYGVDVKYDIDSRPISSNPLSAIFTT
notes: FN3 domain

The next lines start with the binder.

B2: P282BR9P1357_D2 (designed binder)
chain: LPAPKNLVVSRVTEDSARLSWIKDGHPRHFDSFLIQYQESEKVGEAIVLTVPGSERSYDLTGLKPGTEYTVSIYGVDVVYDRGQLISSNPLSAIFTT
notes: FN3 domain
koff (In house human CD8A-Fc): 0.00105 s⁻¹
Cyno T-cell Binding 2 uM (MFI) [1]: 25800 MFI
Human T-cell Binding 2 uM (MFI) [2]: 9610 MFI
Cyno T-cell Binding 0.2 uM (MFI) [3]: 2520 MFI
Human T-cell Binding 0.2 uM (MFI) [4]: 1570 MFI

B3: P283BR9P1363_C8 (designed binder)
chain: B4 chain with Q22A, R23K, H24T, A27L
notes: FN3 domain
koff (In house human CD8A-Fc): 0.000335 s⁻¹
Cyno T-cell Binding 2 uM (MFI) [1]: 37200 MFI
Human T-cell Binding 2 uM (MFI) [2]: 16500 MFI
Cyno T-cell Binding 0.2 uM (MFI) [3]: 9080 MFI
Human T-cell Binding 0.2 uM (MFI) [4]: 3740 MFI

B5: P282BR9P1357_H3 (designed binder)
chain: B4 chain with Q22K, R23K, H24R, S25E, D26Y, A27Q, H28D, L30G
notes: FN3 domain
koff (In house human CD8A-Fc): 0.000285 s⁻¹
Cyno T-cell Binding 2 uM (MFI) [1]: 27100 MFI
Human T-cell Binding 2 uM (MFI) [2]: 11100 MFI
Cyno T-cell Binding 0.2 uM (MFI) [3]: 5700 MFI
Human T-cell Binding 0.2 uM (MFI) [4]: 3030 MFI

B7: P282BR9P1357_C4 (designed binder)
chain: B4 chain with K5N, Q22P, R23F, H24V, D26Q, A27N, H28K, L30H
notes: FN3 domain
koff (In house human CD8A-Fc): 0.000127 s⁻¹
Cyno T-cell Binding 2 uM (MFI) [1]: 41600 MFI
Human T-cell Binding 2 uM (MFI) [2]: 16800 MFI
Cyno T-cell Binding 0.2 uM (MFI) [3]: 7060 MFI
Human T-cell Binding 0.2 uM (MFI) [4]: 4220 MFI

B8: P283BR9P1363_A10 (designed binder)
chain: B10 chain with A22Q, S23R, T24A, V25D, P27I, H28L, R30Y
notes: FN3 domain
koff (In house human CD8A-Fc): 0.00036 s⁻¹
Cyno T-cell Binding 2 uM (MFI) [1]: 27800 MFI
Human T-cell Binding 2 uM (MFI) [2]: 7890 MFI
Cyno T-cell Binding 0.2 uM (MFI) [3]: 4100 MFI
Human T-cell Binding 0.2 uM (MFI) [4]: 2750 MFI

B9: P282BR9P1357_G9 (designed binder)
chain: B10 chain with A22P, S23I, T24A, V25S, D26Q, P27I, P29S, R30P
notes: FN3 domain
koff (In house human CD8A-Fc): 0.000304 s⁻¹
Cyno T-cell Binding 2 uM (MFI) [1]: 41500 MFI
Human T-cell Binding 2 uM (MFI) [2]: 12700 MFI
Cyno T-cell Binding 0.2 uM (MFI) [3]: 4640 MFI
Human T-cell Binding 0.2 uM (MFI) [4]: 2800 MFI

B11: P282BR9P1357_D12 (designed binder)
chain: LPAPKNLVVSRVTEDSARLSWGQYITAFSFDSFLIQYQESEKVGEAIVLTVPGSERSYDLTGLKPGTEYTVSIYGVDVAWFQGKPTWSNPLSAIFTT
notes: FN3 domain
koff (In house human CD8A-Fc): 8.76e-05 s⁻¹
Cyno T-cell Binding 2 uM (MFI) [1]: 40400 MFI
Human T-cell Binding 2 uM (MFI) [2]: 15300 MFI
Cyno T-cell Binding 0.2 uM (MFI) [3]: 7360 MFI
Human T-cell Binding 0.2 uM (MFI) [4]: 3900 MFI
